These results are taken from patent US20200087364A1 (IMMATICS BIOTECHNOLOGIES, published 2020).

The target of this test is T1, HLA-A*01:01 (human).
T1 construct: MHC class I monomer first loaded with a UV-sensitive peptide (not identified) that is cleaved by UV irradiation and exchanged for the tested peptide; captured on streptavidin plates, detected with anti-β2m; also called peptide-receptive MHC molecules
In words: UV-ligand exchange, anti-b2m ELISA. The gist of the method: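 Peptide–MHC complexes made by UV-ligand exchange of a UV-cleavable peptide; exchange yield measured by ELISA on streptavidin-coated plates, samples diluted 100-fold, 1 h 37 °C. Detection with 2 ug/ml HRP anti-β2m, TMB, A450; refolded HLA-A*02:01/MLA-001 monomer standards 15-500 ng/ml.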
(In general: In an ELISA, binding on a coated surface is turned into a signal by an enzyme label.)

B1: VDPASNTY (peptide)
peptide: VDPASNTY
As to B1, the peptide exchange yield lay within 20 to 50%.

B2: SITDVDFIY (peptide)
peptide: SITDVDFIY
B2: the peptide exchange yield was in the range of 20 to 50%.

B3: DTEFHGGLHY (peptide)
peptide: DTEFHGGLHY
For the molecule B3, the peptide exchange yield lay within 50 to 75%.

B4: FPAPPAHWFY (peptide)
peptide: FPAPPAHWFY
Take B4: the peptide exchange yield lay within 20 to 50%.

B5: YEDHFPLLF (peptide)
peptide: YEDHFPLLF
In turn, B5 came in with a peptide exchange yield of 20 to 50%.

B6: TTSSAISWILY (peptide)
peptide: TTSSAISWILY
Regarding B6, the peptide exchange yield lay within 50 to 75%.

B7: STIRGELFF (peptide)
peptide: STIRGELFF
For B7, the peptide exchange yield lay within 20 to 50%.

B8: TTDDTTAMASAS (peptide)
peptide: TTDDTTAMASAS
Regarding B8, the peptide exchange yield fell in the range of 20 to 50%.

B9: SSDNYEHWLY (peptide)
peptide: SSDNYEHWLY
The molecule B9 returned a peptide exchange yield of over 75%.

B10: SSDPKAVMF (peptide)
peptide: SSDPKAVMF
With B10, the peptide exchange yield is 20 to 50%.

B11: KEVDPAGHSYI (peptide)
peptide: KEVDPAGHSYI
The molecule B11 came in with a peptide exchange yield of 20 to 50%.

B12: AADSNPSEL (peptide)
peptide: AADSNPSEL
For the molecule B12, the peptide exchange yield was in the range of 20 to 50%.

B13: EVYDGREHSAY (peptide)
peptide: EVYDGREHSAY
For the molecule B13, the peptide exchange yield fell in the range of 20 to 50%.

B14: KPSAVKDSIY (peptide)
peptide: KPSAVKDSIY
With B14, the peptide exchange yield is 20 to 50%.

B15: QLDSTLDSY (peptide)
peptide: QLDSTLDSY
B15 came in with a peptide exchange yield of 50 to 75%.

B16: HLKILSPIY (peptide)
peptide: HLKILSPIY
Take B16: the peptide exchange yield was in the range of 50 to 75%.

B17: ESEMIKFASYY (peptide)
peptide: ESEMIKFASYY
B17: the peptide exchange yield was over 75%.

B18: NFSDLVFTY (peptide)
peptide: NFSDLVFTY
On to B18, for which the peptide exchange yield lay in the range of 20 to 50%.

B19: AFDDIATYF (peptide)
peptide: AFDDIATYF
For the molecule B19, the peptide exchange yield fell in the range of 20 to 50%.
